The labels stand for the following.
B1: SEQ ID NO: 177 (peptide)
peptide: [Pen]NT[Trp(7-Me)]K(Ac)[Pen][2‑amino‑3‑(4-(2-aminoethoxy)phenyl)propanoic acid][2‑amino‑3‑(6-hydroxynaphthalen-2-yl)propanoic acid][Thp]K(lipid)N[3Pal][Sar]
modifications: disulfide 1-6 (inferred); ends not checked; also: K10 lipidated, lipid not given here
B2: SEQ ID NO: 152 (peptide)
peptide: [Pen]NT[X1]K[Pen][2‑amino‑3‑(4-(2-aminoethoxy)phenyl)propanoic acid][2‑amino‑3‑(6-hydroxynaphthalen-2-yl)propanoic acid][Thp]K(Ac)N[3Pal][Sar]
modifications: disulfide 1-6 (inferred); ends not checked; also: Lys5: lipidated lysine, lipid not given here
B3: SEQ ID NO: 178 (peptide)
peptide: [Pen]NT[Trp(7-Me)]K(lipid)[Pen][2‑amino‑3‑(4-(2-aminoethoxy)phenyl)propanoic acid][2‑amino‑3‑(6-hydroxynaphthalen-2-yl)propanoic acid][Thp]K(Ac)N[3Pal][Sar]
modifications: disulfide 1-6 (inferred); ends not checked; also: K5 lipidated, lipid not given here
B4: SEQ ID NO: 167 (peptide)
peptide: [(R)‑3‑carboxy‑2‑(4-(((R)-5-carboxy-5-hydrazineylpentyl)amino)-4-oxobutanamido)‑N,N,N‑trimethylpropan‑1‑aminium][Pen]NT[Trp(7-Me)]K(Ac)[Pen][2‑amino‑3‑(4-(2-aminoethoxy)phenyl)propanoic acid][2‑amino‑3‑(6-hydroxynaphthalen-2-yl)propanoic acid][Thp]EN[3Pal][NMeK](lipid)
modifications: disulfide 2-7 (inferred); ends not checked; also: X14: lipidated N-methyl-lysine, lipid and methyl place not given here
B5: SEQ ID NO: 154 (peptide)
peptide: R[Pen]NT[X1]K[Pen][2‑amino‑3‑(4-(2-aminoethoxy)phenyl)propanoic acid][2‑amino‑3‑(6-hydroxynaphthalen-2-yl)propanoic acid][Thp]EN[3Pal][Sar]
modifications: disulfide 2-7 (inferred); ends not checked; also: K6: lipidated lysine, lipid not given here

Drawing on patent US20240279281A1, “Peptide Inhibitors of Interleukin-23 Receptor” (Janssen Pharmaceutica NV, priority 2023, published 2024), this text covers IL23R Reporter Assay IC50 and PBMC pSTAT3 IC50 for 14 molecules.

Starred links: 1 amine or outer side, 2 acyl side, 3 side chain; linkers in the order of their positions; H or OH if unused. Positions of bridges follow the written chain, without caps; N, C: chain ends. Non-standard residues stand in square brackets, D forms with d. No end group written: not given here. X1 = 3‑(7-(3-acetamidophenyl)-1H-indol-3-yl)‑2‑aminopropanoic acid, CC(=O)Nc1cccc(-c2cccc3c(CC(N[*:1])C(=O)[*:2])c[nH]c23)c1; X11 = 2‑amino‑3‑(2-hydroxyquinolin-6-yl)propanoic acid, O=C(C(Cc1ccc2nc(O[*:3])ccc2c1)N[*:1])[*:2]; X7 = 2‑amino‑3‑(5-methylpyridin-3-yl)propanoic acid, Cc1cncc(CC(N[*:1])C(=O)[*:2])c1; Trp(7-Me) = Cc1cccc2c(C[C@H](N)C(=O)O)c[nH]c12; 3Pal = N[C@@H](Cc1cccnc1)C(=O)O; NMeK = CN[C@@H](CCCCN)C(=O)O; Pen = CC(C)(S)[C@H](N)C(=O)O; αMeC = C[C@](N)(CS)C(=O)O; lipid = not defined here; Thp = NC1(C(=O)O)CCOCC1; Abu = CC[C@H](N)C(=O)O; Ava = NCCCCC(=O)O; Sar = CNCC(=O)O A value given as a limit tells only on which side of the number the result lay.

In this assay the target is T1, interleukin-23 receptor (IL-23R), Q5VWK5.
T1 chain: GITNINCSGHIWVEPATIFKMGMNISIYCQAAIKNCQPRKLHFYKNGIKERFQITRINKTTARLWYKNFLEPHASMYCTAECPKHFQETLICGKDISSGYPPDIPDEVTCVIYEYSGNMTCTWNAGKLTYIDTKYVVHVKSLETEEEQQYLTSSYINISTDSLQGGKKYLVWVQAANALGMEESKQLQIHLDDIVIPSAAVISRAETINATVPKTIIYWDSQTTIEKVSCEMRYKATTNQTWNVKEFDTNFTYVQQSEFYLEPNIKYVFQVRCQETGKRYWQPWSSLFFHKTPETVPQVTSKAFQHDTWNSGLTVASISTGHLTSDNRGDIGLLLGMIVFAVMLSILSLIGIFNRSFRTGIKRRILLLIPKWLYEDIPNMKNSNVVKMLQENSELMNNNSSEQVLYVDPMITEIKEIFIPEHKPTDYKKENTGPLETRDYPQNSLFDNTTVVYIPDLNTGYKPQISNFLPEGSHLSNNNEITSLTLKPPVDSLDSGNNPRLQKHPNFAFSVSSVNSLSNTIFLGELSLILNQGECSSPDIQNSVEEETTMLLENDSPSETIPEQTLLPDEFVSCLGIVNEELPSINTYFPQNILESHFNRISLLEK
As to the kind of experiment: cell-based or functional assay.
Consider R[Pen]NT[X1]K(Ac)[Pen][5‑(4-(2-amino-2-carboxyethyl)phenoxy)‑N,N,N‑trimethylpentan‑1‑aminium][2‑amino‑3‑(6-hydroxynaphthalen-2-yl)propanoic acid][Thp]EN[X7][Sar] (ends and bridges not checked) [SEQ ID NO: 20], for which the IL23R Reporter Assay IC50 was < 10 nM and the PBMC pSTAT3 IC50 was < 0.1 nM. Take R[Pen]ET[X1]K(Ac)[Pen][2‑amino‑3‑(4-(2-aminoethoxy)phenyl)propanoic acid][2‑amino‑3‑(6-hydroxynaphthalen-2-yl)propanoic acid][Thp]EN[3Pal][Sar] (disulfide 2-7 (inferred); ends not checked) [SEQ ID NO: 158]: the IL23R Reporter Assay IC50 is < 10 nM and the PBMC pSTAT3 IC50 was < 10 pM. In the case of B1, the IL23R Reporter Assay IC50 is > 100 nM and the PBMC pSTAT3 IC50 is > 1 nM. Take RCNT[X1]K(Ac)[αMeC][2‑amino‑3‑(4-(2-aminoethoxy)phenyl)propanoic acid][2‑amino‑3‑(6-hydroxynaphthalen-2-yl)propanoic acid][Thp]EN[3Pal][Sar] (ends and bridges not checked) [SEQ ID NO: 2]: the IL23R Reporter Assay IC50 was < 10 nM.

For B2, the IL23R Reporter Assay IC50 is > 100 nM and the PBMC pSTAT3 IC50 was < 1 nM. For [Pen]NT[Trp(7-Me)]K(Ac)[Pen][2‑amino‑3‑(4-(2-aminoethoxy)phenyl)propanoic acid][X11][Thp]EN[3Pal][Sar] (disulfide 1-6 (inferred); ends not checked) [SEQ ID NO: 149], in that order: < 10 nM and < 0.1 nM. Regarding [Pen]NT[X1]K(Ac)[Pen][5‑(4-(2-amino-2-carboxyethyl)phenoxy)‑N,N,N‑trimethylpentan‑1‑aminium][2‑amino‑3‑(6-hydroxynaphthalen-2-yl)propanoic acid][Thp]EN[X7][Sar] (ends and bridges not checked) [SEQ ID NO: 22], the IL23R Reporter Assay IC50 is < 10 nM and the PBMC pSTAT3 IC50 was < 10 pM. For the molecule B3, the IL23R Reporter Assay IC50 is > 100 nM and the PBMC pSTAT3 IC50 is > 1 nM. In the case of B4, the IL23R Reporter Assay IC50 is > 100 nM and the PBMC pSTAT3 IC50 is < 1 nM. As for R[Pen]ET[X1]K(Ac)[Pen][2‑amino‑3‑(4-(2-aminoethoxy)phenyl)propanoic acid][2‑amino‑3‑(6-hydroxynaphthalen-2-yl)propanoic acid][Thp]EN[3Pal][Sar] (disulfide 2-7 (inferred); ends not checked) [SEQ ID NO: 157], the IL23R Reporter Assay IC50 was < 10 nM and the PBMC pSTAT3 IC50 was < 10 pM.

Take [Ava][Abu]NTWQC[2‑amino‑3‑(4-(2-aminoethoxy)phenyl)propanoic acid][2‑amino‑3‑(6-hydroxynaphthalen-2-yl)propanoic acid][Thp]EN[3Pal][Sar] (ends and bridges not checked) [SEQ ID NO: 172]: the IL23R Reporter Assay IC50 was < 10 nM and the PBMC pSTAT3 IC50 was < 10 pM.

As for B5, the IL23R Reporter Assay IC50 was > 100 nM and the PBMC pSTAT3 IC50 is < 1 nM. Regarding [(R)‑3‑carboxy‑2‑(4-(((R)-5-carboxy-5-hydrazineylpentyl)amino)-4-oxobutanamido)‑N,N,N‑trimethylpropan‑1‑aminium][Pen]NT[Trp(7-Me)]K(Ac)[Pen][2‑amino‑3‑(4-(2-aminoethoxy)phenyl)propanoic acid][2‑amino‑3‑(6-hydroxynaphthalen-2-yl)propanoic acid][Thp]EN[3Pal][NMeK](lipid) (disulfide 2-7 (inferred); not fully specified; ends not checked) [SEQ ID NO: 168], the IL23R Reporter Assay IC50 is > 100 nM and the PBMC pSTAT3 IC50 is < 1 nM. As for [Ava][Abu]NT[Trp(7-Me)]K(Ac)C[2‑amino‑3‑(4-(2-aminoethoxy)phenyl)propanoic acid][2‑amino‑3‑(6-hydroxynaphthalen-2-yl)propanoic acid][Thp]EN[3Pal][Sar] (ends and bridges not checked) [SEQ ID NO: 171], the IL23R Reporter Assay IC50 is < 10 nM and the PBMC pSTAT3 IC50 was < 10 pM.
